Changes are numbered by the printed parent chain.
T1: mNotch1 glutamate ligand binding region protein (EGF10-15), immobilized on a CM5 chip (mouse, UniProt Q01705 375-601)
T1 construct: domain: EGF10-15
T1 sequence (looked up): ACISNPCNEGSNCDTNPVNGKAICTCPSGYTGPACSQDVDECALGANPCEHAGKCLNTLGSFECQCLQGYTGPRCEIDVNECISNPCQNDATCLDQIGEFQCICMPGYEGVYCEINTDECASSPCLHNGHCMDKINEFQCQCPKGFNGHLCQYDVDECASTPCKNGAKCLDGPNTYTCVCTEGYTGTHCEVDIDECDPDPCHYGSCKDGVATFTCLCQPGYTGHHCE

T2: hNotch3 glutamate ligand binding region protein (EGF10-15 as printed), immobilized on a CM5 chip (human, UniProt Q9UM47 351-580)
T2 construct: domain: EGF10-15; For Notch3 the equivalent repeats would be EGF9-14
T2 sequence (looked up): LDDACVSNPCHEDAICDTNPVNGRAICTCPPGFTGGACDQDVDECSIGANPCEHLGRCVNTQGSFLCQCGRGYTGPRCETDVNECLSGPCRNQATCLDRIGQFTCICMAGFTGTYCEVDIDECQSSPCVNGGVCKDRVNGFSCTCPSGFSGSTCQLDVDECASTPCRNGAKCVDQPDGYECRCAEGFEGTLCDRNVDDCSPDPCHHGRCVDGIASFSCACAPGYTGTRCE

T3: mNotch3(EGF9-14)Fc (mouse, UniProt Q61982 352-581)
T3 construct: domain: EGF9-14; also called murine Notch3; selected antigen; not shown: Fc
T3 sequence (looked up): T2 sequence (looked up) with N22S, T153M, D193E, T227I

B1: 90R21 (antibody, V domains shown)
VH: EVQLLESGGGLVQPGGSLRLSCAASGFTFSNYGMSWVRQAPGKGLEWVSSISGYGSNTYYADSVKGRFTISRDNSKNTLYLQMNSLRAEDTAVYYCARISQQAVWGQGTLVTVSS
VL: QSALTQPASVSGSPGQSITISCTGTSSDIGGYQYVSWYQQHPGKAPKLMIYYVSNRPSGVSNRFSGSKSGNTASLTISGLQAEDEADYYCQSADSSSWVFGGGTKLTVLG
notes: also called ATCC deposit No. PTA-8909
B2: 122R5 (Fab, V domains shown)
VH: QVQLVESGGGLVQPGGSLRLSCAASGFTFSDNAIHWVRQAPGKGLEWVSAISSYGSGTYYADSVKGRFTISRDNSKNTLYLQMNSLRAEDTAVYYCARPGFQFSFTFMDIWGQGTLVTVSS
VL: DIELTQPPSVSVAPGQTARISCSGDALGSKYASWYQQKPGQAPVLVIYDDKNRPSGIPERFSGSNSGNTATLTISGTQAEDEADYYCQSWDGKSKVVFGGGTKLTVLG
notes: Human fAb from phage display; also called fAb122R5; lead fAb, 122R5

Columns and labels:
[1] = target: T1, mNotch1 glutamate ligand binding region …; assay: Biacore 2000, Notch EGF10-15 protein on CM5 chip, antibody 25 to 0.20 nM
Protocol: (§1) The KD's of certain anti-Notch glutamate ligand binding region antibodies were determined using the Biacore 2000 system from Biacore Lifesciencse (GE Healthcare). Specifically, purified anti-Notch glutamate ligand binding region antibodies were serially diluted in 2-fold increments from 25 to 0.20 nM in PBS with HBS-P (0.01 M HEPES pH 7.4, 0.15 M NaCl, 0.005% v/v Surfactant P20). Each dilution was tested against Notch glutamate ligand binding region proteins (EGF10-15) immobilized onto a CM5 Biacore chip. The association and dissociation rates were measured and KD values determined using the Biaevaluation software program. NB in the table below means a binding affinity as measured by a KD that is at least ten-fold weaker than the notch-ligand (delta-like ligand) affinity constant.

[2] = target: T4, hNotch1 glutamate ligand binding region protein (EGF10-15), immobilized on a CM5 chip (human, UniProt P46531 375-601); assay: as above
T4 construct: domain: EGF10-15
Protocol: as §1

[3] = target: T2, hNotch3 glutamate ligand binding region …; assay: Biacore 2000, Notch ligand binding region protein on CM5 chip, antibody 25 to 0.20 nM
Protocol: as §1

mNotch3(EGF9-14)Fc = target: T3, mNotch3(EGF9-14)Fc; assay: survey of fAbs after phage display selection on mNotch3(EGF9-14)Fc
[4] = target: T5, full length Notch1 E424Q, expressed on HEK 293 cells (human, UniProt P46531 19-2555); assay: FACS on transfected HEK 293 cells (FIG. 5)
T5 construct: whole, on cells; also called mutated receptor (E424Q)
T5 sequence (P46531 19-2555 E424Q): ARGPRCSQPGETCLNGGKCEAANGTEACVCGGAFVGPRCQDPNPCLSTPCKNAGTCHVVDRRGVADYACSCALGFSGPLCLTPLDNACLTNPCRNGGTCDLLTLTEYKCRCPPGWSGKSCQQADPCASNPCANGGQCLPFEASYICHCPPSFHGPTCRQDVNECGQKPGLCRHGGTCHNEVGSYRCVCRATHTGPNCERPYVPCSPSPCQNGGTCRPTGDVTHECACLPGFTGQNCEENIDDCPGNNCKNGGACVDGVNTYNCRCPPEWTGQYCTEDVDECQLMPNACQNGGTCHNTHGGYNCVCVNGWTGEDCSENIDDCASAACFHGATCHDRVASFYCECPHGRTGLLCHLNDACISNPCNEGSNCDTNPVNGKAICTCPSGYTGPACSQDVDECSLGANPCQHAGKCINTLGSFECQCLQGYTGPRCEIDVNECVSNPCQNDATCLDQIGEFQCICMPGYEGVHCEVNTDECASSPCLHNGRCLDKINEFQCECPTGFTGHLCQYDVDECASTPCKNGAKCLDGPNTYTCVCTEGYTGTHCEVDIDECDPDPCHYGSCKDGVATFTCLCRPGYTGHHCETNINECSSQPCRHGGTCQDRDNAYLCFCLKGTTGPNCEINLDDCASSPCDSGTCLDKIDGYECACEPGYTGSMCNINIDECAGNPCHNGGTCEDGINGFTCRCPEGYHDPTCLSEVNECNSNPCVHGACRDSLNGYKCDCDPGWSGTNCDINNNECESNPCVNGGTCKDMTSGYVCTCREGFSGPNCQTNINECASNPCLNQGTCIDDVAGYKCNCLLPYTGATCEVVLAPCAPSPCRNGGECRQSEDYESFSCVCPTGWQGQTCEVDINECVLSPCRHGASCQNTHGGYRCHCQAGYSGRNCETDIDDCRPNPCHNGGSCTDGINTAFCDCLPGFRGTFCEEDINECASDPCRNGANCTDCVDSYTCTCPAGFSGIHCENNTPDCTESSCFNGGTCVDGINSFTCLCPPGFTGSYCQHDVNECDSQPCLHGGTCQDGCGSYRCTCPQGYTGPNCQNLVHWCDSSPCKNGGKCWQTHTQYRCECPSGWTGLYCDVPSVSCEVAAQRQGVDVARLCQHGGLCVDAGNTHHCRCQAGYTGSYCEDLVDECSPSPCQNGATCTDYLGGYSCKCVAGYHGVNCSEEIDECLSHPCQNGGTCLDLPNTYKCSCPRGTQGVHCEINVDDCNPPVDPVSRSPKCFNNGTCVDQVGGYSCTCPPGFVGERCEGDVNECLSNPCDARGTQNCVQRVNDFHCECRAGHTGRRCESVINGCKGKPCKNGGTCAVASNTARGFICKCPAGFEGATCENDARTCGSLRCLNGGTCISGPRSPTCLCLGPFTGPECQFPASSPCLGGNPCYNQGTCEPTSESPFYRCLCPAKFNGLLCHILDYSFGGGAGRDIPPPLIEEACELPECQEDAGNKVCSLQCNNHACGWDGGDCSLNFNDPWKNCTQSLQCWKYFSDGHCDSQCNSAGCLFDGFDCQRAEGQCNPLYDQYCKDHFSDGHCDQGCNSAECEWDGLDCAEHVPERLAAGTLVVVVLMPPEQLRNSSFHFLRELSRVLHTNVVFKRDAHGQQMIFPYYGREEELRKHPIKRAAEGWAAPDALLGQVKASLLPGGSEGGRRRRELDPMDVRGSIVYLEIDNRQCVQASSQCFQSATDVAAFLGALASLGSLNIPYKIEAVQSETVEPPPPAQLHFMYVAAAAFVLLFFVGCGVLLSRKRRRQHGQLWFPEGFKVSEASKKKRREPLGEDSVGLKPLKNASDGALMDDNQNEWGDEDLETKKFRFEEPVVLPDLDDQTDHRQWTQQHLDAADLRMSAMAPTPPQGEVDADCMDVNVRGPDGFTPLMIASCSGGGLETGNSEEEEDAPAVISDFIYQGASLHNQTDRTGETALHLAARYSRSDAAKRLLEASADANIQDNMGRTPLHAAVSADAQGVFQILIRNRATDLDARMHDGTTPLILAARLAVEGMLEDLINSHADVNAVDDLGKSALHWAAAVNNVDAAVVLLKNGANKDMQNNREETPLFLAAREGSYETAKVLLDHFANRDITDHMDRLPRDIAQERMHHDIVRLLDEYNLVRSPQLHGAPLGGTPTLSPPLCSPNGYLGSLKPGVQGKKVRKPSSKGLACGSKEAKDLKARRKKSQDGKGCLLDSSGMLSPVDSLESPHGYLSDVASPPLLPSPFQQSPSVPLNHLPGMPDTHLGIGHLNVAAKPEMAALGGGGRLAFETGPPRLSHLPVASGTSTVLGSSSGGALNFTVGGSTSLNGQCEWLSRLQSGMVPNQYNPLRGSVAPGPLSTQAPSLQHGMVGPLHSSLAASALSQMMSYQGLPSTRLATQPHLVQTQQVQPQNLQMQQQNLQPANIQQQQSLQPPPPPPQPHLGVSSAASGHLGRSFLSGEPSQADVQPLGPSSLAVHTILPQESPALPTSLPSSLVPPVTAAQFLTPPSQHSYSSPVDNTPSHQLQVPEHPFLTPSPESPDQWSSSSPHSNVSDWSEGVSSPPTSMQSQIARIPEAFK

| Binder | Kd [1] [nM] | Kd [2] [nM] | Kd [3] [nM] | binding result (mNotch3(EGF9-14)Fc) | binding result [4] |
| --- | --- | --- | --- | --- | --- |
| B1 | 0.25 | < 0.1 |  |  |  |
| B2 |  | 4.25 | < 0.1 | binds | no binding |
